# Changes are numbered by the printed parent chain.
# B1: ch48-E11-H7-B5 (antibody, V domains shown)
# VH: EVQLVESGGGLVKPGGSLKLSCAASGFTFSSYAMSWVRQTPEKRLEWVASITIGDDTYYPDSVKGRFTISRDHAKNILYLQVSSLRSEDTAMYSCARGVNSYGSSYRYFDVWGAGTTVTVSS
# VL: DIVMTQSHKFMSTSVGDRVSITCKASQDVSTAVAWYQQKPGQSPKLLIYWASTRHTGVPDRFTGSGSGTDYTLTISSVQAEDLALYYCQQHYSIPFTFGAGTKLEK
# B2: 48-E11-H7-B5 (antibody, V domains shown)
# VH: B1 VH
# VL: B1 VL
# notes: mouse monoclonal hybridoma antibody
# B3: 25-E7-A10-H6 (antibody, V domains shown)
# VH: EVQLVESGGGLVQPGGSRKLSCAASGFTFSTFGMHWVRQAPEKGLEWVAYISSGSSTIYYADTVKGRFTISRDNPKNTLFLQMTSLRSEDTAMYYCARSTGTGAMDYWGQGTSVTVSS
# VL: DIQMTQTTSSLSASLGDRVTISCRASQDISKYLNWYQQKPDGTVKLLIYYTSRLHSGVPSRFSGSGSGTDYSLTISNLEQEDIATYFCQQGNTLPWTFGGGTKLEIK
# notes: as for B2
# B4: 27-D11-C2-A10 (antibody, V domains shown)
# VH: B3 VH with T31V, M34V, S56N, Y59H, N74I, T100S
# VL: B3 VL with T7S, T20S, K31N, T43A, E79D, I106L
# notes: as for B2
# B5: 26-H9-B9-B7 (antibody, V domains shown)
# VH: B3 VH with L4R, T31S, T100D, T102K
# VL: B3 VL with Q3V, T7S, K31N
# notes: as for B2
# B6: 27-G5-E9-B8 (antibody, V domains shown)
# VH: B3 VH with T31S
# VL: B3 VL with R18S, I21F, K31N, Y49S, T93A
# notes: as for B2
# B7: 2-H1-D7-E5-D5 (antibody, V domains shown)
# VH: B3 VH with Q3H, T31S, A40P, T57S, S99G
# VL: B3 VL with A25T, K31N, R53K, E79D
# notes: as for B2
# B8: 27-F11-E10-G10 (antibody, V domains shown)
# VH: B3 VH with T31S, T69S, Y94F
# VL: B3 VL with K31N, I106L
# notes: as for B2
# B9: 10-H9-E3-G3 (antibody, V domains shown)
# VH: B3 VH with L4R, T31S, T57A, I58M, T100D, T102K
# VL: B3 VL with K31N, I48V
# notes: as for B2
# B10: ch8-B3-F6-H8 (antibody, V domains shown)
# VH: EVKVIESGGGLVQPGGSLKLSCAASGFDFSRYWMSWVRQAPGKGLEWIGEINPDSSAINYTPSLKDKFIISRDNAKNTLYLQMSKVRSEDTALYYCATSMTMDYWGQGTSVTVSS
# VL: DIVMTQSPSSMYASLGERVTITCKASQDIKSYLSWYQQKPWKSPKTLIYYATSLADGVPSRFSGSGSGQDYSLTISSLESDDTATYYCLQHGESPYTFGGGTKLEK
# B11: 8-B3-F6-H8 (antibody, V domains shown)
# VH: B10 VH
# VL: B10 VL
# notes: as for B2
# B12: ch43-D12-F3-G11 (antibody, V domains shown)
# VH: EVQVVESGPGLVAPSQSLSITCTVSGFSLTSYGVSWVRQPPGKGLEWLGVIWADGSTNYHSALLSRLSISKDNSKSQVFLKLNSLQTDDTATYYCAKGHWDGFAYWGQGTLVAVSA
# VL: DIVLTQSPAIMSTSPGEKVTLTCSASSSITSSYLYWYQQKPGSSPKLWIYSTSNLASGVPARFSGSGSGTSYYLTISSMEAEDAASYFCHQWSSYPPTFGGGTKLELK
# B13: 43-D12-F3-G11 (antibody, V domains shown)
# VH: B12 VH
# VL: B12 VL
# notes: as for B2
# B14: 2-H8-C9-F7-E2 (antibody, V domains shown)
# VH: EVQLQQSGAELVKPGASVKLSCKASGYTFTNYWMHWVKQRPGQGLEWIGEINPSNGRTNYNEKFKSKATLTVDKSSSTAYMQLSSLTSEDSAVYYCARGSLTTVVPFDYWGQGTTLTVSS
# VL: DIQMTQTPSSLSASLGGKVTITCKASQDINNYIAWYQHKPGKGPRLLIHYTSTLQPGIPSRFSGSGSGRDYSFSISNLEPEDIATYFCLQYDILLTFGGGTKLEK
# notes: as for B2
# Legend:
# human LILRB4 [1] = biological target: T1, human LILRB4 (human, UniProt Q8NHJ6 22-448); assay: cell-based or functional assay
# human LILRB3 [2] = biological target: T2, human LILRB3 (human, UniProt O75022 24-631); assay: FACS, 293F-hLILRB3 cells
# T2 construct: whole, on cells; also called hLILRB3
# T2 sequence (O75022 24-631): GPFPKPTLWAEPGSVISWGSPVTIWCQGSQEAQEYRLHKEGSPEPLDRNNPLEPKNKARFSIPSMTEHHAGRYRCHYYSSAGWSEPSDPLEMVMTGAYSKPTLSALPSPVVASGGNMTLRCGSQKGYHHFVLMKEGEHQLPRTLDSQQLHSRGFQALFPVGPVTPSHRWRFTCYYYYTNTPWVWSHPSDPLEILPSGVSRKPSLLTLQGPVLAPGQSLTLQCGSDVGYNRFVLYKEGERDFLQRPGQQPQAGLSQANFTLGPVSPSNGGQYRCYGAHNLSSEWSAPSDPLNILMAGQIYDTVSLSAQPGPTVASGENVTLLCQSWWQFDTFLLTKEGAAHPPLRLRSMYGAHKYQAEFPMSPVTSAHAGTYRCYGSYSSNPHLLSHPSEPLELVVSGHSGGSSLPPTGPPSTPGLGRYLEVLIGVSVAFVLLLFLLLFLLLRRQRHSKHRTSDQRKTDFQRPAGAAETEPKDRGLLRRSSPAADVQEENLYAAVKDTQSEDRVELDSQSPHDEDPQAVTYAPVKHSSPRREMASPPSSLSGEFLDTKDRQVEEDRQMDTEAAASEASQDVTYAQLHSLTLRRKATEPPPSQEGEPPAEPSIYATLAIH
# Method: (§1) The protocol for FACS analysis is described as follows: [0438] (a) Cells were harvested by centrifugation at 300 g for 3 mins. […] (b) The cells were washed for 2 times with FACS buffer by centrifuging at 300 g for 3 mins and the supernatant was discarded. [0440] (c) Cell were resuspended and seeded into assay plate (2×10⁵ cells/well) in 50 μl FACS buffer. […] Cells were incubated with antibodies at 4° C. for 1 hour. […] (d) Step (b) was repeated and the cells were resuspended with 100 μl diluted 2nd antibody, incubated at 4° C. for 1 hour in the dark. [0442] (e) Step (b) was repeated and the cells were resuspended with 100 μl FACS buffer. The cells were kept in dark for FACS analysis.
# human LILRB4 [3] = biological target: T1, human LILRB4; assay: FACS, 293F-hLILRB4 cells
# Method: as §1
# human LILRB4 [4] = biological target: T1, human LILRB4; assay: cell-based or functional assay; remark: listed apart in the source
# human LILRB5 = biological target: T3, human LILRB5 (human, UniProt O75023 24-590); assay: FACS, 293F-hLILRB5 cells
# T3 construct: whole, on cells; also called hLILRB5
# T3 sequence (O75023 24-590): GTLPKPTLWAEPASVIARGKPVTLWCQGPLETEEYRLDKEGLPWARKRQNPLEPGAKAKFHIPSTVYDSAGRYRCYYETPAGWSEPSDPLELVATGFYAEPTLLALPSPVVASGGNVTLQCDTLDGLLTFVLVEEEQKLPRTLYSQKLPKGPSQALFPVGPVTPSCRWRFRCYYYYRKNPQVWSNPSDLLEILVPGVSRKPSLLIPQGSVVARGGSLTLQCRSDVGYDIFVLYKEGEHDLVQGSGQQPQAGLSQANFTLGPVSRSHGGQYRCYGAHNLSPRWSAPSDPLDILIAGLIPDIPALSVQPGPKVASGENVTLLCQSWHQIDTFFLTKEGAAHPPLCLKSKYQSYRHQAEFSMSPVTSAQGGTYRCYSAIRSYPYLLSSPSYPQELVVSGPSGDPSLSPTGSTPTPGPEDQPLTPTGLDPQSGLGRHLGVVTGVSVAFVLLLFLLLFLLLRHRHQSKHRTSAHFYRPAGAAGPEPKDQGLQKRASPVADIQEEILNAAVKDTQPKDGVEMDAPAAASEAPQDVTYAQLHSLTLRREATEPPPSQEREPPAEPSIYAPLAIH
# human LILRB3 [5] = biological target: T2, human LILRB3; assay: FACS, 293F-hLILRB3 cells; remark: listed apart in the source
# human LILRB1 = biological target: T4, human LILRB1 (human, UniProt Q8NHL6 24-650); assay: FACS, 293F-hLILRB1 cells
# T4 construct: whole, on cells; also called hLILRB1
# T4 sequence (Q8NHL6 24-650): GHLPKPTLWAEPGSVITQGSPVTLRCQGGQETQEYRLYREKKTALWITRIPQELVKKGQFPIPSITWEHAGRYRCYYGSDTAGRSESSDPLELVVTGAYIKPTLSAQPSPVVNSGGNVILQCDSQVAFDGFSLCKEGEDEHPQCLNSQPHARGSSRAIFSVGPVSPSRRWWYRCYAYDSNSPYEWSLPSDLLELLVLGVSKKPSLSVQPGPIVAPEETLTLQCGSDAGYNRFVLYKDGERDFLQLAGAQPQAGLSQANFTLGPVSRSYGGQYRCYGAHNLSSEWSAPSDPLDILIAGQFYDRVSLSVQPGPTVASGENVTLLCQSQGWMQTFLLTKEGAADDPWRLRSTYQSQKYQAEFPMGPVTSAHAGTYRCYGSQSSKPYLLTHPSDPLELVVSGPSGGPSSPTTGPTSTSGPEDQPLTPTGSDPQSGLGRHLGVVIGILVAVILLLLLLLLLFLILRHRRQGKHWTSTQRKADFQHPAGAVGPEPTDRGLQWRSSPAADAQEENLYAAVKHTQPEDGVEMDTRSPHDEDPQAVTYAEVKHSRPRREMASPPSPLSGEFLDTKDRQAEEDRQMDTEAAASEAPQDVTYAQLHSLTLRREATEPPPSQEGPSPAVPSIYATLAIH
# human LILRB4 [6] = biological target: T1, human LILRB4; assay: FACS, 293F-hLILRB4 cells; remark: listed apart in the source
# Method: The subcloning plates were screened by protein or cell-based ELISA, and the subclones with good binding ability were expanded to 24-wells for confirmation tests. The specificity and cross-reactivity of these subclones were confirmed with FACS analysis. […] Fluorescent dye-conjugated secondary antibody was used to detect the binding of the primary antibody with the cells. Median fluorescence intensity (MFI) was measured by FACS analysis. […]
# human LILRA3 = biological target: T5, human LILRA3 (human, UniProt Q8N6C8 24-439); assay: FACS, 293F-hLILRA3 cells
# T5 construct: whole, on cells; also called hLILRA3
# T5 sequence (Q8N6C8 24-439): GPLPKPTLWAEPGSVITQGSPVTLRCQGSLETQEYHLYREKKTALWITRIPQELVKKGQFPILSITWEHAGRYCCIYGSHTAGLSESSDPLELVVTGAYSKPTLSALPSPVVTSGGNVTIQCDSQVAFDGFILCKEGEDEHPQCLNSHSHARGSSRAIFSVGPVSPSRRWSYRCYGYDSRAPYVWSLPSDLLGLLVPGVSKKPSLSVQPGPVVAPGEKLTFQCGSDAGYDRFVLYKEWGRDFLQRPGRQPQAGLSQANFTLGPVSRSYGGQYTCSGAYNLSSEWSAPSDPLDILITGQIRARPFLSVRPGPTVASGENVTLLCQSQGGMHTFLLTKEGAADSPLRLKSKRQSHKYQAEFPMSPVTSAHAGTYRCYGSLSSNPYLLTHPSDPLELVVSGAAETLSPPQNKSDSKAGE
# human LILRB2 = biological target: T6, human LILRB2 (human, UniProt Q8N423 22-597); assay: FACS, 293F-hLILRB2 cells
# T6 construct: whole, on cells; also called hLILRB2
# T6 sequence (Q8N423 22-597): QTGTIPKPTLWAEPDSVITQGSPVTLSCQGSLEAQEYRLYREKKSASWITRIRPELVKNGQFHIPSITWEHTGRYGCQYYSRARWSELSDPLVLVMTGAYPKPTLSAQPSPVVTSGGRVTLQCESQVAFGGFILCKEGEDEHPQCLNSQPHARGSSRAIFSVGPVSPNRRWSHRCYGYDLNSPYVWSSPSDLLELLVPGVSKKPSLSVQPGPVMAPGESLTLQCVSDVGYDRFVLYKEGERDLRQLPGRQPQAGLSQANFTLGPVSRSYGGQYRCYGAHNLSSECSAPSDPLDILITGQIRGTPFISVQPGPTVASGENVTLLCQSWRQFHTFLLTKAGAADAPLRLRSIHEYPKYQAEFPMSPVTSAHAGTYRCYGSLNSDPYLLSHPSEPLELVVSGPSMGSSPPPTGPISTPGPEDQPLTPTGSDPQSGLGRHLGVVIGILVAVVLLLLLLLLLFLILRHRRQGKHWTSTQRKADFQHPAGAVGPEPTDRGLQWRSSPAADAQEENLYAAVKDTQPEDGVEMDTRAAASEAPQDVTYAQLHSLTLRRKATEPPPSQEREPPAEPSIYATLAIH
# human LILRA5 = biological target: T7, human LILRA5 (human, UniProt A6NI73 42-299); assay: FACS, 293F-hLILRA5 cells
# T7 construct: whole, on cells; also called hLILRA5
# T7 sequence (A6NI73 42-299): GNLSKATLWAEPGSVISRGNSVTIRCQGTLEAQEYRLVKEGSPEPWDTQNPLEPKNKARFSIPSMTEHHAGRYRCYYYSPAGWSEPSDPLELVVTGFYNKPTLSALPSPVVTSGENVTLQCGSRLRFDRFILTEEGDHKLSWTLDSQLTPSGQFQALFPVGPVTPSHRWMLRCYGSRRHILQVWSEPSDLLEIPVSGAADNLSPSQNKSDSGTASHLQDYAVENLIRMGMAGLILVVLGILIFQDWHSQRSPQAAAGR
# human LILRA2 = biological target: T8, human LILRA2 (human, UniProt Q8N149 24-483); assay: FACS, 293F-hLILRA2 cells
# T8 construct: whole, on cells; also called hLILRA2
# T8 sequence (Q8N149 24-483): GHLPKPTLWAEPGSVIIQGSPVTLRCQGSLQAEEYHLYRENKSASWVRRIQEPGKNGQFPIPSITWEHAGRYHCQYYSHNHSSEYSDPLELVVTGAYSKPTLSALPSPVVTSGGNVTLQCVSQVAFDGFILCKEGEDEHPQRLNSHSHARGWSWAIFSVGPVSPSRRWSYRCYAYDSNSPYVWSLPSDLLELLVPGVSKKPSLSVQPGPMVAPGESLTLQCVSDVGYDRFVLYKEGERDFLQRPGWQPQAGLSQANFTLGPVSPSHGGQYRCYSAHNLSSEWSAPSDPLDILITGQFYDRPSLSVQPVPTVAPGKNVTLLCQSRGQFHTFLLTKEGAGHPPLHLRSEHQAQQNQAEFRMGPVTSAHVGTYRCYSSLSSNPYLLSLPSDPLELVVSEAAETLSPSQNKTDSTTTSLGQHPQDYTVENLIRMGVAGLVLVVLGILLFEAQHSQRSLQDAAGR
# human LILRA4 = biological target: T9, human LILRA4 (human, UniProt P59901 24-499); assay: FACS, 293F-hLILRA4 cells
# T9 construct: whole, on cells; also called hLILRA4
# T9 sequence (P59901 24-499): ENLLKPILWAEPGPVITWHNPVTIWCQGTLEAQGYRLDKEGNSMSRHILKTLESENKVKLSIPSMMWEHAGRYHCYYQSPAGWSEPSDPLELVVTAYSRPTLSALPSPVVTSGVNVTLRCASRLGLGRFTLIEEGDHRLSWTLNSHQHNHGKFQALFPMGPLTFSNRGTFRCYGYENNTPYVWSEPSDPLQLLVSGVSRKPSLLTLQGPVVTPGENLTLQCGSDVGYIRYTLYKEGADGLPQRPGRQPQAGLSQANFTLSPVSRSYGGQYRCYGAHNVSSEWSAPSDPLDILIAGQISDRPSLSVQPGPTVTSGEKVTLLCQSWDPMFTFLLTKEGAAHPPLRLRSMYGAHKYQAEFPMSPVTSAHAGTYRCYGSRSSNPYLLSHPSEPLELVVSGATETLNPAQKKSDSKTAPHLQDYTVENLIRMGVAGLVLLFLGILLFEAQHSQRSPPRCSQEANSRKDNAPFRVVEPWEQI
# human LILRA1 = biological target: T10, human LILRA1 (human, UniProt O75019 17-489); assay: FACS, 293F-hLILRA1 cells
# T10 construct: whole, on cells; also called hLILRA1
# T10 sequence (O75019 17-489): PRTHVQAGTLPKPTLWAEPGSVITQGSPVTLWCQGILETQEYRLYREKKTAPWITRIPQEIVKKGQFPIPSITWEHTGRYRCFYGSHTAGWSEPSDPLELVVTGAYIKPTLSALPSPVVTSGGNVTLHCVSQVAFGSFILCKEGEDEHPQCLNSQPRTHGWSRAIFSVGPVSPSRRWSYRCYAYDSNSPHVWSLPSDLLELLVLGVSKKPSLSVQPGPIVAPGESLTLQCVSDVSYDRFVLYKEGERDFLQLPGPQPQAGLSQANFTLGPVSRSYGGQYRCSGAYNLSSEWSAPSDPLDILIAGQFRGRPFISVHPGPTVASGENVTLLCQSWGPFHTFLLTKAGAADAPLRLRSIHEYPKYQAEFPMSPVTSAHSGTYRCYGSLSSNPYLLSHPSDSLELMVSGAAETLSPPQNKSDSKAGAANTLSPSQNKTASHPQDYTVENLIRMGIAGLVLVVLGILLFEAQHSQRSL
# human LILRB4 [7] = biological target: T1, human LILRB4; assay: cell-based or functional assay; remark: listed apart in the source
Binder,"ADCP (%) at 133.3 nM, macrophages and MV-4-11 cells (human LILRB4 [1])",binding result (human LILRB3 [2]),EC50 (human LILRB4 [3]),Max MFI (human LILRB4 [3]),"FcγR stimulation (TNF-α, pg/mL) (human LILRB4 [4])",Fold change (Compared to isotype) (human LILRB4 [4]),MFI (human LILRB5),MFI (human LILRB3 [5]),MFI (human LILRB1),MFI (human LILRB4 [6]),MFI (human LILRA3),MFI (human LILRB2),MFI (human LILRA5),MFI (human LILRA2),MFI (human LILRA4),MFI (human LILRA1),"Max cell cytotoxicity (%), ADCC on THP-1 cells (human LILRB4 [7])","EC50 (nM), ADCC on THP-1 cells (human LILRB4 [7])"
B1,18%,no binding (tested: up to 66.67 nM),4.05 nM,53700 MFI,1310 pg/mL,41.4 fold,–,–,–,–,–,–,–,–,–,–,–,–
B2,–,–,–,–,–,–,18.9 MFI,26.7 MFI,27.3 MFI,2760 MFI,24.1 MFI,45.8 MFI,359 MFI,22.6 MFI,24.3 MFI,25.1 MFI,–,–
B3,–,–,–,–,–,–,16.3 MFI,23.1 MFI,22.5 MFI,759 MFI,20.1 MFI,33.2 MFI,19.9 MFI,21 MFI,19.9 MFI,23.1 MFI,–,–
B4,–,–,–,–,–,–,18.8 MFI,19.7 MFI,20.8 MFI,588 MFI,17.2 MFI,28.3 MFI,17.2 MFI,17.8 MFI,19.6 MFI,21.6 MFI,–,–
B5,–,–,–,–,–,–,19.6 MFI,23.6 MFI,20.8 MFI,441 MFI,19.1 MFI,28.8 MFI,19.6 MFI,17.9 MFI,19.4 MFI,21.3 MFI,–,–
B6,–,–,–,–,–,–,18.7 MFI,23.7 MFI,20.2 MFI,213 MFI,19.5 MFI,25.4 MFI,19.1 MFI,17.7 MFI,–,24 MFI,–,–
B7,–,–,–,–,–,–,22.6 MFI,23 MFI,25.2 MFI,915 MFI,20 MFI,31.5 MFI,24.7 MFI,20 MFI,23.7 MFI,21.9 MFI,–,–
B8,–,–,–,–,–,–,19.5 MFI,24.9 MFI,21.1 MFI,512 MFI,19.1 MFI,27.7 MFI,–,17.3 MFI,19.7 MFI,22.1 MFI,–,–
B9,–,–,–,–,–,–,21.8 MFI,22.7 MFI,21 MFI,210 MFI,18.3 MFI,29.5 MFI,25 MFI,19.9 MFI,20.7 MFI,21.6 MFI,–,–
B10,4.59%,–,2.05 nM,48500 MFI,391 pg/mL,12.4 fold,–,–,–,–,–,–,–,–,–,–,7.1%,–
B11,–,–,–,–,–,–,16.8 MFI,–,19.4 MFI,1060 MFI,20 MFI,29.5 MFI,24.5 MFI,19.6 MFI,19.5 MFI,22.2 MFI,–,–
B12,18.2%,–,2.91 nM,48000 MFI,215 pg/mL,6.81 fold,–,–,–,–,–,–,–,–,–,–,2.39%,4.14 nM
B13,–,–,–,–,–,–,17.9 MFI,–,22.6 MFI,727 MFI,20.2 MFI,30.4 MFI,172 MFI,20 MFI,21.2 MFI,22.2 MFI,–,–
B14,–,–,–,–,–,–,21.6 MFI,26.7 MFI,25.4 MFI,1710 MFI,21.7 MFI,28.8 MFI,22.6 MFI,19.7 MFI,23 MFI,22.6 MFI,–,–

# Source: patent publication US20250361295A1 (ANTENGENE BIOLOGICS, published 2025)
